This is an account of results in PMC2542475 (The Journal of Cell Biology, 2008).

The test addresses T1, recombinant full-length Vps41 (S. cerevisiae, UniProt P38959 1-992).
T1 sequence: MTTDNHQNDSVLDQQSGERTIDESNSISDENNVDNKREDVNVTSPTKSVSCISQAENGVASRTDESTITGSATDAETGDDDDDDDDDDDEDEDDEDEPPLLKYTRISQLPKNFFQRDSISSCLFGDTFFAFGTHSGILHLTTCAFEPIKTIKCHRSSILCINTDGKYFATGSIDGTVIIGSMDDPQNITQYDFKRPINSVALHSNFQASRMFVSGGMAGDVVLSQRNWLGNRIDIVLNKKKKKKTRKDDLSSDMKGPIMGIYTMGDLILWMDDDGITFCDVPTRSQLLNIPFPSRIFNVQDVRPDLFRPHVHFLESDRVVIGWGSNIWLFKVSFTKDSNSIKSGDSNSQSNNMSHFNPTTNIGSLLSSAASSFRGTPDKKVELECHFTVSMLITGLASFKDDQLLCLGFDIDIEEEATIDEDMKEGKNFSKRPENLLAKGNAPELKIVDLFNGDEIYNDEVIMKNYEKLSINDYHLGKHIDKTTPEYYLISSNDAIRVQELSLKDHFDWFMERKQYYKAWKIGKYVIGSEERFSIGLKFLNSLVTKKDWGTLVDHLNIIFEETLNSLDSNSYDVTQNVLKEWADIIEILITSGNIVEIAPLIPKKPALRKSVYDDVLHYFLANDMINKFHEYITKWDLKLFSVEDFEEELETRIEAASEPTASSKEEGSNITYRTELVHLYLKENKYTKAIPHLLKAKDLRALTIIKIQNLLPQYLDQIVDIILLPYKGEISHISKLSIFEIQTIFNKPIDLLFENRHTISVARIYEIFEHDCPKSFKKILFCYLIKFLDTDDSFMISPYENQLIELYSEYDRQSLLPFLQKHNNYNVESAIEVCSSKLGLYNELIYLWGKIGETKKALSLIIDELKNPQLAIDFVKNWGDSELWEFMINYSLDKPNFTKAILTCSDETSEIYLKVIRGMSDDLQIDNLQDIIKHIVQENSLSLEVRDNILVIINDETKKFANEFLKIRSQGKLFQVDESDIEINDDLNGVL
Nature of the test: pull-down.

B1: GST-Ypt7 (natural protein)
chain: MSSRKKNILKVIILGDSGVGKTSLMHRYVNDKYSQQYKATIGADFLTKEVTVDGDKVATMQVWDTAGQERFQSLGVAFYRGADCCVLVYDVTNASSFENIKSWRDEFLVHANVNSPETFPFVILGNKIDAEESKKIVSEKSAQELAKSLGDIPLFLTSAKNAINVDTAFEEIARSALQQNQADTEAFEDDYNDAINIRLDGENNSCSC
As to B1, the binding result is reported as “binds”.
